# Assay results taken from IntAct's records for PubMed 16778768.
# B1: High osmolarity signaling protein SHO1 (Saccharomyces cerevisiae), P40073 (parent)
# chain: MSISSKIRPTPRKPSRMATDHSFKMKKFYADPFAISSISLAIVSWVIAIGGSISSASTNESFPRFTWWGIVYQFLIICSLMLFYCFDLVDHYRIFITTSIAVAFVYNTNSATNLVYADGPKKAAASAGVILLSIINLIWILYYGGDNASPTNRWIDSFSIKGIRPSPLENSLHRARRRGNRNTTPYQNNVYNDAIRDSGYATQFDGYPQQQPSHTNYVSSTALAGFENTQPNTSEAVNLHLNTLQQRINSASNAKETNDNSNNQTNTNIGNTFDTDFSNGNTETTMGDTLGLYSDIGDDNFIYKAKALYPYDADDDDAYEISFEQNEILQVSDIEGRWWKARRANGETGIIPSNYVQLIDGPEEMHR
# partner: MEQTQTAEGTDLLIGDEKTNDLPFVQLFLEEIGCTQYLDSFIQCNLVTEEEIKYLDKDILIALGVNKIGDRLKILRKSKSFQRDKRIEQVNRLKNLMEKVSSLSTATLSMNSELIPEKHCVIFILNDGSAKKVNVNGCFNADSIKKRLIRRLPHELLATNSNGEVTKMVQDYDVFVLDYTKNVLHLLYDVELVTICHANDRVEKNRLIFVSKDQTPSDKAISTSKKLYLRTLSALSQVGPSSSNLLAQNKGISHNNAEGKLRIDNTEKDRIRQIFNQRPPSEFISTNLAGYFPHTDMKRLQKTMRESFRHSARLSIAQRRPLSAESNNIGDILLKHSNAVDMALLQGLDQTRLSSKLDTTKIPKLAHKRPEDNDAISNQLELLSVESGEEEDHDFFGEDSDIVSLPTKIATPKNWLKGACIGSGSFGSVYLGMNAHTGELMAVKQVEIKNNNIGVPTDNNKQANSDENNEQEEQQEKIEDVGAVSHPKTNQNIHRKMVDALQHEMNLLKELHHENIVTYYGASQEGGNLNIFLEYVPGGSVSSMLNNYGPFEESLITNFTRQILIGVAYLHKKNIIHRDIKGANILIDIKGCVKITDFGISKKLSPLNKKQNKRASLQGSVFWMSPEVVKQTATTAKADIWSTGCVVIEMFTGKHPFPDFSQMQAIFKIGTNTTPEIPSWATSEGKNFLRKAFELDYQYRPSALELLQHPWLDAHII
# B2: High osmolarity signaling protein SHO1 (Saccharomyces cerevisiae), P40073 (parent)
# chain: B1 chain
# partner: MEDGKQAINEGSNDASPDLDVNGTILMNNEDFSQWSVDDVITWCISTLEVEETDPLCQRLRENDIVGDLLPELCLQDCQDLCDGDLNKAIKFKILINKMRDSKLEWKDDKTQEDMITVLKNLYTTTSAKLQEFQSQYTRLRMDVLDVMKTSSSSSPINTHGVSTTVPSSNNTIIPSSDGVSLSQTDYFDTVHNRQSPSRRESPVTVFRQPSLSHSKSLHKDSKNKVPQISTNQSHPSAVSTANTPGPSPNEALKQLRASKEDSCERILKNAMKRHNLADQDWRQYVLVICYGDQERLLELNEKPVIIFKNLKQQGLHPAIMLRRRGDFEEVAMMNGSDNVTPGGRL
# Variants of: B1
# Settings: with ste11_yeast STE11, P23561
row,effect of a mutation on the interaction,Variant
1,increasing interaction,R342G
2,increasing interaction,G346S

# Variants of: B2
# Settings: with ste50_yeast STE50, P25344
row,effect of a mutation on the interaction,Variant
1,increasing interaction,G346S
2,increasing interaction,R342G
